Test results: US10800847
Each block holds one substance with its values, some of them ahead of it.

What was measured:
HLA-B*1502 (B75) (human) = assay: Luminex regular beads (#7), IVIg diluted 1:8
HLA-B*1402 (B65) (human) [1] = assay: Luminex regular beads (#7), IVIg diluted 1:8
HLA-B*1302 (B13) (human) [2] = assay: Luminex regular beads (#7), IVIg diluted 1:8
[3] = target: Serum albumin on negative control beads (HSA/BSA) (human or bovine); assay: Luminex regular beads (#7), IVIg diluted 1:8
HLA-B*1510 (B71) (human) [4] = assay: Luminex regular beads (#7), IVIg diluted 1:8
HLA-B*0702 (B7) (human) = assay: Luminex regular beads (#7), IVIg diluted 1:8
HLA-B*1511 (B75) (human) = assay: Luminex regular beads (#7), IVIg diluted 1:8
HLA-B*1301 (B13) (human) [5] = assay: Luminex regular beads (#7), IVIg diluted 1:8
HLA-B*1513 (B77) (human) [6] = assay: Luminex regular beads (#7), IVIg diluted 1:8
HLA-B*0801 (B8) (human) = assay: Luminex regular beads (#7), IVIg diluted 1:8
HLA-B*1503 (B72) (human) = assay: Luminex regular beads (#7), IVIg diluted 1:8
HLA-B*1401 (B64) (human) [7] = assay: Luminex regular beads (#7), IVIg diluted 1:8
HLA-B*1516 (B63) (human) = assay: Luminex regular beads (#7), IVIg diluted 1:8
HLA-B*1801 (B18) (human) = assay: Luminex regular beads (#7), IVIg diluted 1:8
[8] = target: HLA-A*3001 (A30) single antigen on beads (human); assay: Luminex single-antigen regular beads (#7), IVIg 1:8
[9] = target: HLA-A*2902 (A29) single antigen on beads (human); assay: as above
[10] = target: HLA-A*6801 (A68) single antigen on beads (human); assay: as above
[11] = target: HLA-A*3301 (A33) single antigen on beads (human); assay: as above
[12] = target: HLA-A*3601 (A36) single antigen on beads (human); assay: as above
[13] = target: HLA-A*3402 (A34) single antigen on beads (human); assay: as above
[14] = target: HLA-A*3401 (A34) single antigen on beads (human); assay: as above
[15] = target: HLA-A*3101 (A31) single antigen on beads (human); assay: as above
[16] = target: HLA-A*3201 (A32) single antigen on beads (human); assay: as above
[17] = target: HLA-A*3002 (A30) single antigen on beads (human); assay: as above
[18] = target: HLA-A*6601 (A66) single antigen on beads (human); assay: as above
[19] = target: HLA-A*6602 (A66) single antigen on beads (human); assay: as above
[20] = target: HLA-A*3303 (A33) single antigen on beads (human); assay: as above
HLA-B*1402 (B65) (human) [21] = assay: iBead MFI against regular-bead MFI, IVIg diluted 1:8
HLA-B*1302 (B13) (human) [22] = assay: as above
[23] = target: Serum albumin on negative control beads (HSA/BSA) (human or bovine); assay: as above
HLA-B*1510 (B71) (human) [24] = assay: as above
HLA-B*1301 (B13) (human) [25] = assay: as above
HLA-B*1401 (B64) (human) [26] = assay: as above
[27] = target: HLA-Cw*1601 (Cw16) (human); assay: Luminex, iBeads (#6), 1:8
[28] = target: HLA-Cw*0303 (Cw9) (human); assay: Luminex, iBeads (#6), 1:8
[29] = target: HLA-Cw*0302 (Cw10) (human); assay: Luminex, iBeads (#6), 1:8
HLA-B*8201 (B82) (human) = assay: Luminex, iBeads (#6), 1:8
[30] = target: HLA-Cw*1203 (Cw12) (human); assay: Luminex, iBeads (#6), 1:8
[31] = target: HLA-Cw*0304 (Cw10) (human); assay: Luminex, iBeads (#6), 1:8
[32] = target: Albumin (negative control beads) (human or bovine); assay: Luminex, iBeads (#6), 1:8
[33] = target: HLA-Cw*1701 (Cw17) (human); assay: Luminex, iBeads (#6), 1:8
[34] = target: HLA-Cw*0501 (Cw5) (human); assay: Luminex, iBeads (#6), 1:8
[35] = target: HLA-Cw*1502 (Cw15) (human); assay: Luminex, iBeads (#6), 1:8
[36] = target: HLA-Cw*1402 (Cw14) (human); assay: Luminex, iBeads (#6), 1:8
[37] = target: HLA-Cw*0801 (Cw8) (human); assay: Luminex, iBeads (#6), 1:8
HLA-B*1512 (B76) (human) = assay: Luminex regular beads (#7), IVIg diluted 1:8
HLA-B*1513 (B77) (human) [38] = assay: iBead MFI against regular-bead MFI, IVIg diluted 1:8

MFI (HLA-B*1502 (B75) (human)): 1540 MFI
MFI (HLA-B*1402 (B65) (human) [1]): 1440 MFI
MFI (HLA-B*1302 (B13) (human) [2]): 2530 MFI
MFI [3]: 10300 MFI
MFI (HLA-B*1510 (B71) (human) [4]): 1620 MFI
MFI (HLA-B*0702 (B7) (human)): 837 MFI
MFI (HLA-B*1511 (B75) (human)): 3820 MFI
MFI (HLA-B*1301 (B13) (human) [5]): 3520 MFI
MFI (HLA-B*1513 (B77) (human) [6]): 3210 MFI
MFI (HLA-B*0801 (B8) (human)): 1760 MFI
MFI (HLA-B*1503 (B72) (human)): 2300 MFI
MFI (HLA-B*1401 (B64) (human) [7]): 2280 MFI
MFI (HLA-B*1516 (B63) (human)): 3130 MFI
MFI (HLA-B*1801 (B18) (human)): 567 MFI
MFI [8]: 1230 MFI
MFI [9]: 820 MFI
MFI [10]: 0 MFI
MFI [11]: 925 MFI
MFI [12]: 704 MFI
MFI [13]: 0 MFI
MFI [14]: 2150 MFI
MFI [15]: 0 MFI
MFI [16]: 424 MFI
MFI [17]: 562 MFI
MFI [18]: 875 MFI
MFI [19]: 838 MFI
MFI [20]: 179 MFI
Difference % (iBead vs regular bead) (HLA-B*1402 (B65) (human) [21]): -100%
Difference % (iBead vs regular bead) (HLA-B*1302 (B13) (human) [22]): -100%
Difference % (iBead vs regular bead) [23]: -24%
Difference % (iBead vs regular bead) (HLA-B*1510 (B71) (human) [24]): -79%
Difference % (iBead vs regular bead) (HLA-B*1301 (B13) (human) [25]): -71%
Difference % (iBead vs regular bead) (HLA-B*1401 (B64) (human) [26]): -82%
MFI [27]: 1560 MFI
MFI [28]: 1660 MFI
MFI [29]: 1770 MFI
MFI (HLA-B*8201 (B82) (human)): -193 MFI
MFI [30]: 1950 MFI
MFI [31]: 1820 MFI
MFI [32]: 7800 MFI
MFI [33]: 3250 MFI
MFI [34]: 2020 MFI
MFI [35]: 1200 MFI
MFI [36]: 1070 MFI
MFI [37]: 467 MFI
Substance: IVIg Gamunex-C Lot NKLK1 (antibody)

MFI (HLA-B*1502 (B75) (human)): 861 MFI
MFI (HLA-B*1402 (B65) (human) [1]): 1460 MFI
MFI (HLA-B*1302 (B13) (human) [2]): 1940 MFI
MFI [3]: 2340 MFI
MFI (HLA-B*1510 (B71) (human) [4]): 1290 MFI
MFI (HLA-B*0702 (B7) (human)): 714 MFI
MFI (HLA-B*1511 (B75) (human)): 3640 MFI
MFI (HLA-B*1301 (B13) (human) [5]): 3680 MFI
MFI (HLA-B*1513 (B77) (human) [6]): 2260 MFI
MFI (HLA-B*0801 (B8) (human)): 2120 MFI
MFI (HLA-B*1503 (B72) (human)): 1060 MFI
MFI (HLA-B*1401 (B64) (human) [7]): 2400 MFI
MFI (HLA-B*1516 (B63) (human)): 3130 MFI
MFI (HLA-B*1512 (B76) (human)): 1130 MFI
MFI (HLA-B*1801 (B18) (human)): 246 MFI
MFI [8]: 928 MFI
MFI [9]: 1580 MFI
MFI [10]: 0 MFI
MFI [11]: 1490 MFI
MFI [12]: 778 MFI
MFI [13]: 0 MFI
MFI [14]: 2880 MFI
MFI [15]: 366 MFI
MFI [16]: 738 MFI
MFI [17]: 533 MFI
MFI [18]: 1700 MFI
MFI [19]: 3650 MFI
MFI [20]: 542 MFI
Difference % (iBead vs regular bead) (HLA-B*1402 (B65) (human) [21]): -100%
Difference % (iBead vs regular bead) (HLA-B*1302 (B13) (human) [22]): -100%
Difference % (iBead vs regular bead) [23]: -29%
Difference % (iBead vs regular bead) (HLA-B*1510 (B71) (human) [24]): -100%
Difference % (iBead vs regular bead) (HLA-B*1301 (B13) (human) [25]): -99%
Difference % (iBead vs regular bead) (HLA-B*1513 (B77) (human) [38]): -89%
Difference % (iBead vs regular bead) (HLA-B*1401 (B64) (human) [26]): -96%
MFI [27]: 1110 MFI
MFI [28]: 1220 MFI
MFI [29]: 1170 MFI
MFI (HLA-B*8201 (B82) (human)): 510 MFI
MFI [30]: 1620 MFI
MFI [31]: 1440 MFI
MFI [33]: 2710 MFI
MFI [34]: 1510 MFI
MFI [35]: 255 MFI
MFI [36]: 976 MFI
MFI [37]: 650 MFI
Substance: IVIg Octagam (Octapharma, Lachen, Switzerland) (antibody)
